For the test, the target named is C-t FLAG-tagged WT-RELN (mouse) (UniProt Q60841). Put plainly: immunoblot in non-reducing conditions (SDS-PAGE); culture media of HEK293T cells coexpressing FLAG-WT-RELN and monoallelic variants; non-reducing conditions.

In turn, C-t FLAG-tagged WT-RELN, Q60841 27-3461 registered a stoichiometry N of 2.

The record behind these values is article PMC11324310.
